# Results reported in the nanobody polyreactivity screen of Harvey et al. (2022).
# Assay: yeast display, Sf9 membrane polyspecificity reagent, FACS + sequencing; frameworks hold sequencing errors
# Summary of the method: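 A synthetic nanobody library was expressed on Saccharomyces cerevisiae BJ5465 by galactose induction for 36–48 hours. The library was stained for 1 hour at 4 °C with 10% biotinylated, detergent-solubilized Sf9 membrane reagent and enriched with streptavidin microbeads before FACS. Low and high (top ~1%) gates were set on anti-HA fluorescence for expression and streptavidin fluorescence for reagent binding, and each polyreactivity label reflects the gate of origin.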
row,Sequence,polyreactivity (PSR sort gate)
1,QVQLVESGGGLVQAGGSLRLSCAASGSIFIYNAMGWYRQGPGKERELVAAISSSGGSTYYADSVKGRFTISRDNAKNTVYLQMNSLNPEDTAVYYCAARTYYVRGLGGRPGMDYWGPGTQVTVSS,low polyreactivity
2,QVQLVESGGGLVQAGGSLRLSCAASGSIFKTNAMGWYRQAPGKERELVAGISNGGSTNYADSVKGRFTISRDNAKNTVYLQMNSLKPEDTAVYYCATDFAVTKMEYWGQGTQVTVSS,low polyreactivity
3,QVQLVESGGGLVQAGGSLRLSCAASGFILGRYAMGWYRQAPGKERELVAAISIGGRTNYADSVKGRFTISRDNAKITVYFQMNSLKPEDTAVYYCATSFAVLLSQVDYWGQGTQVTVSS,low polyreactivity
4,QVQLVESGGGLVQAGGSLRLSCAASGFIISYYAMGWYRQAPGKDRELVAAISWRGGSTYYADSVKGRFTISRDNAKNTVYLQMNSLKPEDTAVYYCAADFLYGAEGNDYWGQGTQVTVSS,high polyreactivity
5,QVQLVESGGGLVQAGGSLRLSCAASGSIFGDYVMGWYRQAPGKERELVAAINRGGSTYYADSVKARFTISRDNAKNTVYLQMNSLKPEDTAVYYCAAGYPSWYYGYPYDSWGQGTQVTVSS,low polyreactivity
6,QVQLVESGGGLVQAGGSLRLSCAASGNIFSVYAMVWYRPAPGKERELVAAISSSGGRTYYADSVKGRFTISRDNAKNTVYLQMNSLKPEDTAVYYCAARSYTGQFGYWGQGTQVTVSS,high polyreactivity
7,QLQLVESGGGLVQAGGSLRLSCAASASTFYRYAMCCYIQAPGKERELVAGISSSGGSTYYADSVKGRFTISRDNAKNTVYLQMNSLKPEDTAVYYCAAVGQWGYGYWGQGTQVTVSS,high polyreactivity
8,QVQLVESGGGLVQAGGSLRLSCAATGSIFQGNVMGWYRPAPGKERELVAGISSSGGRTYYADSVKGRFTISRDNAKNTVYLQMNSLIPEDTAVYYCNAVPSNRQLDYDYWGQGTLVTVSS,high polyreactivity
9,QVQLVESGGGLVQAGGSLRLSCAASGGTFRAYVMGWYRQAPGKERELVAAISRSGTRTYYADSVKGRFTISRDNAKNTVYLQMNSLKPEDTAVYYCAAQAGVYYDYEYWGQGTLVTVSS,high polyreactivity
10,QVQLVESGGGLVQAGGSLRLSCAASGNTFNANAMGWYRQAPGKERELVAVISANGGRTYYADSVKGRFTISRDNAKNTVYLQMNSLKPEDTAVYYCATGRYGGQGYPFYYWGQGTQVTVSS,low polyreactivity
11,QVQLVESGGGLVQAGGSLRLSCAASGFTFWYYAMGWYRQAPGKERELVAAITRGGSTNYADSVKGRFTISRDNAKNTVYLQMNSLKPEDTAVYYCAKRQGYPTYRRYDYWGQGTQVTVSS,high polyreactivity
12,QVQLEESGGGLVQAGGSLRLICAASGSTFIYNAMGWYRQAPGKERELVAAISARTGNTYYADSVKGRFTISRDNAKNTVYLQMNSLKPEDTAVYYCARRGFPRGGGPSRYYWYDYWGQGTQVTVSS,high polyreactivity
13,QVQLVESGGGLVQAGGSLRLSCAASGSTFTDYAMGWYRQAPGKERELVAAITNSGSSTNYEDSVKGRFTISRDNAKNTVYLQMNSLKPEDTAVYYCNASSYPWEYYYLYYGYDYWVQGTQVTVSS,low polyreactivity
14,QVQLVESGGGLVQAGGSLRLSCAASGRIFPWYAMGWYRQAPGKERALVAAINWRAGRTYYADSVKGRFTISRDNAKNTVYLQMNSLKPEDTAVYYCAAETYSSGEWYDYWGQGTQVTVSS,high polyreactivity
15,QVQLVESGGGLVQAGGSLRLSCAASGFIFYYNAMGWYRQAPGKERELVAAISSSAGSTYYADSVKGRFTISRDNAKNTVYLQMNSLKPEDTAVYYCDGSRPPNTSNTGYGSWGQGTQVTVSS,low polyreactivity
16,QVQLVESGGGLVQAGGTLRLICADSGFTFPVYAMGWSRQAPGKERQLVAAITRSGGRTYYADSVKGRFRISRDNAKNTVYLQMNSLKPEDTAFYYCNADYPYGPGSRVRYDYWGQGTQVTVSS,high polyreactivity

row,Sequence,polyreactivity (PSR sort gate)
1,QVQLVESGGGLVQAGGSLRLSCAASGIIFESNAMGWYRQAPGKERELVAAITGRGGRTYYADSVKGRFTISRDNAKNTVYLQTNSLKPEDTAVYYCAADGLRLVPGYKYDYWGQGTQVTVSS,high polyreactivity
2,QVQLVESGGGLVQAGGSLRLSCAASGFTFANNAMGWYRQAPGKERELVAAITSSGTRTYYADSVKGRFTISRDNAKNTVYLQMNSLKPEDTAVYYCAADKPGRPSRMYYWGQGTQVTVSS,high polyreactivity
3,QVQLVESGGGLVQAGGSLRLSCAASGFTFSENTMGWYRQAPGKERELVADIDSGGSTYYADSVKGRFTISRDNAKNTVYLQMKRLKPEDTAVYYCAKDYHVVGGPTFLFEYDYWGQGSQVTVSS,low polyreactivity
4,QVQLVESGGGLVQAGGSLSLICAASGFTFLIYAMGWYRQAPGKERELVAAITWRGSGTYYADSVKGRFTISRDNAKNTVYLQMNSLKPEDTAVYYCAARTARRTYDYWGQGTQVTLSS,low polyreactivity
5,QVQLVESGGGLVQAGGSLRLSCAASGSIFTYYTMAWYRQAPGTERELVAAINGRGHSTYYADSVKGRFTISRDNAKNTVYLQMKSLKSEDTAVYYCKALGSLDGRYGYWGQGTQVTVSS,high polyreactivity
6,QVQLVESGGGLVQAGGSLRLSCAASGSIFFGNAMGWYRQAPGKERELVAAIDSGGGTNYADSVKGRFTISRDNAKNTVYLQMNSLKPEDTAVYYCAREQGVNRNHDYWGQGTQVTVSS,low polyreactivity
7,QVQLHESGGGLVQAGGSLRLSCAASGTITYAGPMGWYRQAPGKEREFVAGIGVGSNTNYADSVKGRYTIIRDNAINTVYLEKNSLKPEDTPVYYCAVGGYAPLGRPYWGQVTQVTVSS,low polyreactivity
8,QVQLVESGGGLVQAGGSLRLSCAASGRTCWDYAMGWYRPAPGKERELVAAITWGGGSTYYADSVKGRFTISRDNAKNTVYLQMNSLKPEDTAVYYCAADTKGWGQGTQVTVSS,low polyreactivity
9,QVQLVESGAGLVQAGGSLRLSCAATGLTFDYNAMGWYRKAPGKERELVAAITWSGGSTYYADSVKGRFTISRDNAKNTVYLQMNSLKTEDTAVYYCATESYGLDYYDEYNYWGQGTQVTVSS,low polyreactivity
10,QVQLVESGGGLVQEGGSLRLSCAASGFIFGYYAMGWYRQAPGKERELVAAISFSDGITYYADSVKGRFTISRDNAKNTVYLQMNSLKPEDTAVYYCATEILDYYYGSEYDYWGQGTQVTVSS,high polyreactivity
11,QVQLVESGGGLVQAGGSLRLSCAASGRTFSLYAMGWYRQAPGKERELVAAISWGGGSTYYADSVKGRFTISRDNAKNTVYLQMNSLKPEDTAVYYCAADDVSATKYEDDYWGQGTQVTVSS,low polyreactivity
12,QVQLVESGGGLVQAGGILRISCAASGFIFDLYAMGWYRQAPGKERELVAAISGSGGSTYYADSVKGRFTISRDNAKNTVYLQMNSLKPEDTAVYYCAARRFGTNYDYWGQGTQVTVSS,high polyreactivity
13,QVQLVESGGGLVQAGGSLRLSCAPSGFIFWRNAMGWYRQAPGKEREFVAAITSSGGRTYYADSVKGRFTISRDNAKNTVYLQMNSLKPEDTAVYYCAAEIRDYAKSYSFYWGQGTQVTVSS,high polyreactivity
14,QVQLVESGGGLVQAGGSLRLSCAASGSTFGPYDMGWYRQAPGQERDLVAAITRSGGRTYYADSVKGRFTFSRDNAKNTVYLQKNSLKPEDTAVYYCAAPPSEATSQRYKYNYWGQGTQVTVSS,high polyreactivity
15,QVQLVESGGGLVQAGGSLRLSCAASGSIFGRYAMGWYRQAPGKERELVASIYSSGSTYYADSVKGRFTISRDNAKNTVYLQMNSLKPEDTAVYYCAAQISVWGYRVGYTKYYYWGQGTQVTVSS,high polyreactivity
16,QVQLVESGGGLVQAGGSLRLSCAASGITFRRNAMGWYRQAPGKERELVARITGSGGSTYYADSVKGRFTISRDNAKNTVYLQMNSLKPEATAVYYCATERYGKYAMDYWGQGTQVTVSS,high polyreactivity
